The values below are quoted from earlier work in PMC11381810.

Usually Kd stands for the equilibrium constant for the complex coming apart.

Data set [1] has as its target syntaxin-1 dimer SNARE motif (Rattus norvegicus) (UniProt P32851). To be noted: cited from earlier work.
Data set [2] deals with syntaxin-1 SNARE motif (Rattus norvegicus) (UniProt P32851). To be noted: cited from earlier work.

Sequence of syntaxin-1 SNARE motif (P32851 191-253): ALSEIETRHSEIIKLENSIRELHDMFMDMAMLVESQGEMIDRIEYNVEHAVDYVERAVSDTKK
Sequence of syntaxin-1 dimer SNARE motif (P32851 191-253): as above

As for “syntaxin-1 dimer SNARE motif (from UniProt P32851)”, the dissociation constant Kd in data set [1] was 12 µM. With “syntaxin-1 SNARE motif (from UniProt P32851)”, in data set [2], the Kd is 1.4 µM.
